Data reported in the Human Domainome abundance scans (Beltran et al. 2025).
± gives the uncertainty stated by the source.

B1: POU domain, class 4, transcription factor 1, residues 266 to 347; numbered along this chain, Q01851 (parent)
chain: RELEAFAERFKQRRIKLGVTQADVGSALANLKIPGVGSLSQSTICRFESLTLSHNNMIALKPILQAWLEEAEGAQREKMNKP

Variants of: B1
Assay: abundance fitness (aPCA) (normalised: wild type 0, dead -1); higher = more abundant; growth selection in yeast, the domain comes from the species named
Conditions: Homo sapiens

Variant | abundance fitness
RELEAFAERFKQRRIKLGVTQADVGSALANLKIPGVGSLSQSTICRFESLTLSHNNMIALMPILQAWLEEAEGAQREKMNKP [K61M] | -0.1 ± 0.062
RELEAFAERFKQRRIKLGVTQADVGSALANLKIPGVGSLSQSTICRFESLTLSHNNMIALNPILQAWLEEAEGAQREKMNKP [K61N] | -0.388 ± 0.08
RELEAFAERFKQRRIKLGVTQADVGSALANLKIPGVGSLSQSTICRFESLTLSHNNMIALPPILQAWLEEAEGAQREKMNKP [K61P] | -1.19 ± 0.36
RELEAFAERFKQRRIKLGVTQADVGSALANLKIPGVGSLSQSTICRFESLTLSHNNMIALQPILQAWLEEAEGAQREKMNKP [K61Q] | 0.018 ± 0.074
RELEAFAERFKQRRIKLGVTQADVGSALANLKIPGVGSLSQSTICRFESLTLSHNNMIALRPILQAWLEEAEGAQREKMNKP [K61R] | -0.051 ± 0.04
RELEAFAERFKQRRIKLGVTQADVGSALANLKIPGVGSLSQSTICRFESLTLSHNNMIALSPILQAWLEEAEGAQREKMNKP [K61S] | -0.149 ± 0.047
RELEAFAERFKQRRIKLGVTQADVGSALANLKIPGVGSLSQSTICRFESLTLSHNNMIALTPILQAWLEEAEGAQREKMNKP [K61T] | -0.132 ± 0.053
RELEAFAERFKQRRIKLGVTQADVGSALANLKIPGVGSLSQSTICRFESLTLSHNNMIALVPILQAWLEEAEGAQREKMNKP [K61V] | -0.105 ± 0.046
RELEAFAERFKQRRIKLGVTQADVGSALANLKIPGVGSLSQSTICRFESLTLSHNNMIALWPILQAWLEEAEGAQREKMNKP [K61W] | -0.07 ± 0.052
RELEAFAERFKQRRIKLGVTQADVGSALANLKIPGVGSLSQSTICRFESLTLSHNNMIALYPILQAWLEEAEGAQREKMNKP [K61Y] | 0.007 ± 0.074
RELEAFAERFKQRRIKLGVTQADVGSALANLKIPGVGSLSQSTICRFESLTLSHNNMIALKAILQAWLEEAEGAQREKMNKP [P62A] | -0.366 ± 0.053
RELEAFAERFKQRRIKLGVTQADVGSALANLKIPGVGSLSQSTICRFESLTLSHNNMIALKCILQAWLEEAEGAQREKMNKP [P62C] | -0.429 ± 0.082
RELEAFAERFKQRRIKLGVTQADVGSALANLKIPGVGSLSQSTICRFESLTLSHNNMIALKDILQAWLEEAEGAQREKMNKP [P62D] | -0.188 ± 0.077
RELEAFAERFKQRRIKLGVTQADVGSALANLKIPGVGSLSQSTICRFESLTLSHNNMIALKEILQAWLEEAEGAQREKMNKP [P62E] | -0.413 ± 0.067
RELEAFAERFKQRRIKLGVTQADVGSALANLKIPGVGSLSQSTICRFESLTLSHNNMIALKFILQAWLEEAEGAQREKMNKP [P62F] | -0.518 ± 0.11
RELEAFAERFKQRRIKLGVTQADVGSALANLKIPGVGSLSQSTICRFESLTLSHNNMIALKGILQAWLEEAEGAQREKMNKP [P62G] | -0.2 ± 0.039
RELEAFAERFKQRRIKLGVTQADVGSALANLKIPGVGSLSQSTICRFESLTLSHNNMIALKIILQAWLEEAEGAQREKMNKP [P62I] | -0.816 ± 0.25

Variant | abundance fitness
RELEAFAERFKQRRIKLGVTQADVGSALANLKIPGVGSLSQSTICRFESLTLSHNNMIALKKILQAWLEEAEGAQREKMNKP [P62K] | -0.243 ± 0.077
RELEAFAERFKQRRIKLGVTQADVGSALANLKIPGVGSLSQSTICRFESLTLSHNNMIALKLILQAWLEEAEGAQREKMNKP [P62L] | -0.524 ± 0.066
RELEAFAERFKQRRIKLGVTQADVGSALANLKIPGVGSLSQSTICRFESLTLSHNNMIALKMILQAWLEEAEGAQREKMNKP [P62M] | -0.687 ± 0.1
RELEAFAERFKQRRIKLGVTQADVGSALANLKIPGVGSLSQSTICRFESLTLSHNNMIALKNILQAWLEEAEGAQREKMNKP [P62N] | -0.286 ± 0.13
RELEAFAERFKQRRIKLGVTQADVGSALANLKIPGVGSLSQSTICRFESLTLSHNNMIALKQILQAWLEEAEGAQREKMNKP [P62Q] | -0.393 ± 0.092
RELEAFAERFKQRRIKLGVTQADVGSALANLKIPGVGSLSQSTICRFESLTLSHNNMIALKRILQAWLEEAEGAQREKMNKP [P62R] | -0.347 ± 0.043
RELEAFAERFKQRRIKLGVTQADVGSALANLKIPGVGSLSQSTICRFESLTLSHNNMIALKSILQAWLEEAEGAQREKMNKP [P62S] | -0.243 ± 0.069
RELEAFAERFKQRRIKLGVTQADVGSALANLKIPGVGSLSQSTICRFESLTLSHNNMIALKTILQAWLEEAEGAQREKMNKP [P62T] | -0.192 ± 0.07
RELEAFAERFKQRRIKLGVTQADVGSALANLKIPGVGSLSQSTICRFESLTLSHNNMIALKVILQAWLEEAEGAQREKMNKP [P62V] | -0.485 ± 0.057
RELEAFAERFKQRRIKLGVTQADVGSALANLKIPGVGSLSQSTICRFESLTLSHNNMIALKYILQAWLEEAEGAQREKMNKP [P62Y] | -0.562 ± 0.21
RELEAFAERFKQRRIKLGVTQADVGSALANLKIPGVGSLSQSTICRFESLTLSHNNMIALKPCLQAWLEEAEGAQREKMNKP [I63C] | -0.028 ± 0.075
RELEAFAERFKQRRIKLGVTQADVGSALANLKIPGVGSLSQSTICRFESLTLSHNNMIALKPDLQAWLEEAEGAQREKMNKP [I63D] | -0.41 ± 0.1
RELEAFAERFKQRRIKLGVTQADVGSALANLKIPGVGSLSQSTICRFESLTLSHNNMIALKPELQAWLEEAEGAQREKMNKP [I63E] | -0.295 ± 0.08
RELEAFAERFKQRRIKLGVTQADVGSALANLKIPGVGSLSQSTICRFESLTLSHNNMIALKPFLQAWLEEAEGAQREKMNKP [I63F] | 0.027 ± 0.15
RELEAFAERFKQRRIKLGVTQADVGSALANLKIPGVGSLSQSTICRFESLTLSHNNMIALKPGLQAWLEEAEGAQREKMNKP [I63G] | -0.274 ± 0.041
RELEAFAERFKQRRIKLGVTQADVGSALANLKIPGVGSLSQSTICRFESLTLSHNNMIALKPKLQAWLEEAEGAQREKMNKP [I63K] | -0.137 ± 0.07
RELEAFAERFKQRRIKLGVTQADVGSALANLKIPGVGSLSQSTICRFESLTLSHNNMIALKPLLQAWLEEAEGAQREKMNKP [I63L] | -0.113 ± 0.061
